# Measurements as given in the DeepSol protein solubility set.
# Assay: soluble on expression in E. coli; label from the status in PepcDB or PDB records
row,Sequence,soluble on expression in E. coli
1,STRPVGGTEYSWCRAIDGGTGIAVIALLLSRTPKLQNLQNTLDKLQIYHPTLRSNIRFDASANSFSFVVTSAADSHVEIHPFDSVSTAQIIRDSDDPCADPHRIILEHEMNKNTWINPHRWIKSESRVFIVSLYDLTDDGEQRILTFRLNTAAVDRTAAVTLLREFMKETAADGFGNGPVVAATETAVGLGKAIEELIPSGKGDKPFWARGIDVLGYSLNAFRFSNLNFVDAENSNRRSQLVRLKLDRDQTLKLVAGCKARGLKLWAALASSALIAAYSSKNLPPYQGEKYAVVTLSDCRSILEPPLTSNDFGFYHAGILHTHDLTGEEKLWDLAKRCYDSFTSSKNSNKQFTDMSDLNFLMCKAIENPNLTPSSSLRTAFISIFEDPVIDESPEPELASLGVQDYIGCASIHGVGPSVAVFDALRDGKLDCAFVYPSPLHSREQMDGLIQHMKTILLEGSASSF,soluble
2,STSTFNPRECKLSKQEGQNYGFFLRIEKDTEGHLVRVVEKCSPAEKAGLQDGDRVLRINGVFVDKEEHMQVVDLVRKSGNSVTLLVLDGDSYEKAVKTRVDLKELGQSQKEQGLSDNILSPVMNGGVQTWTQPRLCYLVKEGGSYGFSLKTVQGKKGVYMTDITPQGVAMRAGVLADDHLIEVNGENVEDASHEEVVEKVKKSGSRVMFLLVDKETDKRHVEQKIQFKRETASLKLLPHQPRIVEMKKGSNGYGFYLRAGSEQKGQIIKDIDSGSPAEEAGLKNNDLVVAVNGESVETLDHDSVVEMIRKGGDQTSLLVVDKETDNMYRLAHFSPFLYYQSQELPNGSVKEAPAPTPTSLEVSSPPDTTEEVDHKPKLCRLAKGENGYGFHLNAIRGLPGSFIKEVQKGGPADLAGLEDEDVIIEVNGVNVLDEPYEKVVDRIQSSGKNVTLLVCGKKAYDYFQAKKIPIVSSLADPLDTPPDSKEGIVVESNHDSHMAKERAHSTASHSSSNSEDTEM,soluble
3,STWTPRNRSEDEEEDENIDLEKNDDDEPNKPTDKGDSTDTEADHKLINPGEIPCDRFKDETHSKDLDPPLTDSELKEGEERTDLLAEQAKPTTSSPSVLQRGSDLITQEKPSEPGHAASTGNSNVTSVIHSPPSAPKPKLWSLAEIATSSDRCKGSSEASQAAGLSQSTVIASAASPTRSSPQCPLPNNTVLSRPIYYTSPFYPGYTNYSTFGHLHSSHGTNTSSTAHFNGLSQTVLNRAEALVRESKVRSQTQVDLCKDSPYELKKGMSNI,not soluble
4,SVAADSAATESLGRIGSLSQVSGVLGCQWGDEGKGKLVDILAQHFDIVARCQGGANAGHTIYNSEGKKFALHLVPSGILNEDTTCVIGNGVVVHLPGLFKEIDGLESNGVSCKGRILVSDRAHLLFDFHQEVDGLRESELAKSFIGTTKRGIGPAYSSKVIRNGIRVGDLRHMDTLPQKLDLLLSDAAARFQGFKYTPEMLREEVEAYKRYADRLEPYITDTVHFINDSISQKKKVLVEGGQATMLDIDFGTYPFVTSSSPSAGGICTGLGIAPSVVGDLIGVVKAYTTRVGSGPFPTENLGTGGDLLRLAGQEFGTTTGRPRRCGWLDIVALKFSCQINGFASLNLTKLDVLSDLNEIQLGVAYKRSDGTPVKSFPGDLRLLEELHVEYEVLPGWKSDISSVRNYSDLPKAAQQYVERIEELVGVPIHYIGIGPGRDALIYK,soluble
5,SWKFSRYVRTQMQELEPWQLKQALKTHQGVLQATYEGLVAINSEGSLYLINDSARAMLNYHQELGNVFTDGIDNPESFSLKGDDYINGLIRVNGKNLVMNRVTLRTSTGEPYGAVFSLRDQNEMHVLSEKISQVTQYMENMRVARHEYQNKLSTISGLLQMGAYDKALSVCLSQAKASQSQLDSLHALNSRPALSALILAKASKANELGVALSIDCQSDLSALSRRLSEEQLCGLIGNLAQNALEAVKGQENGHVHIGISESACEYTIQVSNNGPLLESEFDVLCELGFTTKQNKADHGVGMYLVRSIVEQGNGHMELDSDEQETAFTIYFPKELG,not soluble
6,SWKRNKFRLTYVAEAPDLTQGLSNVHKKRVSAARLLSRQNLQSPKSSRSTIFVRLHTNGNQELQYQPGDHLGVFPGNHEDLVNALIERLEDAPPANHVVKVEMLEERNTALGVISNWKDESRLPPCTIFQAFKYYLDITTPPTPLQLQQFASLATNEKEKQRLLVLSKGLQEYEEWKWGKNPTMVEVLEEFPSIQMPATLLLTQLSLLQPRYYSISSSPDMYPDEVHLTVAIVSYHTRDGEGPVHHGVCSSWLNRIQADDVVPCFVRGAPSFHLPRNPQVPCILVGPGTGIAPFRSFWQQRQFDIQHKGMNPCPMVLVFGCRQSKIDHIYREETLQAKNKGVFRELYTAYSREPDRPKKYVQDVLQEQLAESVYRALKEQGGHIYVCGDVTMAADVLKAIQRIMTQQGKLSEEDAGVFISRLRDDNRYHEDIFGV,soluble
7,SWQTYVDTNLVGTGAVTQAAILGLDGNTWATSAGFAVTPAQGQTLASAFNNADPIRASGFDLAGVHYVTLRADDRSIYGKKGSAGVITVKTSKSILVGVYNEKIQPGTAANVVEKLADYLIGQGF,soluble
8,TALSVLDLVMIGEGKTFADAIEESRQLARHVEQQHYSRYWIAEHHDMPGIGSAATSLVINEIANATRHIRVGAGGIMLPNHAPLVVAEQFGTLNTLHPGRIDLGLGRAPGTSGPTVRALRGAAPERDFGQDIAELRDYLADNGKRRVRGVPGAHDVPVWILGSSLFGADLAAKLGLPYAFASHFAPRYLLQAIAHYRANFQPSAQLAKPYVMVGMNLFAAASDAEADYLASSHRKWMLDLHVGRFGLLPKPQEGYLERLPDHERAVLDQVMACSVAGGPERVREGLRSLIEQTGADELMIDCRIHDPLARQRSHAYAAQ,not soluble
9,TDAQKRRRAVGHALAYAGYAEIIPSPFMDPEVFDVWGLAADDERRKTVSVLNPLEAERNVLSTSLLPSMLDAVKRNVARGHNDFSLFGLQQVAFEHGSGVSPMPSVASRPEESVVAELVDSLPNQPLHVATVGTGNIEFEGPWGKGRAYTFADAIESARAVARAAGVTLELANADALPWHPGRCAALLIDGTPVGYAGELHPQILEKAGLPARTCAMELDLSALP,not soluble
10,TDQAAFDTNIVTLTRFVMEEGRKARGTGEMTQLLNSLCTAVKAISTAVRKAGIAHLWGIAGSTNVTGDQVKKLDVLSNDLVINVLKSSFATCVLVSEEDKNAIIVEPEKRGKYVVCFDPLDGSSNIDCLVSIGTIFGIYRKNSTDEPSEKDALQPGRNLVAAGYALYGSATMLVLAMVNGVNCFMLDPAIGEFILVDRDVKIKKKGSIYSINEGYAKEFDPAITEYIQRKKFPPDNSAPYGARYVGSMVADVHRTLVYGGIFMYPANKKSPKGKLRLLYECNPMAYVMEKAGGLATTGKEAVLDIVPTDIHQRAPIILGSPEDVTELLEIYQKHAAK,soluble
11,TGILLANLGTPDAPTPEAVKRYLKQFLSDRRVVDTSRLLWWPLLRGVILPLRSPRVAKLYASVWMEDGSPLMVYSRQQQQALAQRLPDTPVALGMSYGSPSLESSVDELLAEHVDHIVVLPLYPQFSCSTVGAVWDELARILARKRSIPGISFIRDYADNHDYINALANSVRASFAKHGEPDLLLLSYHGIPQRYADEGDDYPQRCRTTTRELASALGMVPEKVMMTFQSRFGREPWLMPYTDETLKMLGEKGVGHIQVMCPGFAADCLETLEEIAEQNREVFLGAGGKKYEYIPALNATPEHIEMMANLV,not soluble
12,TGQIGTKGTVLFCNPTETEQYLKCNVEMFVQGASSANDFKKGYTFDLYNSNGEELGVKFGDMISSSSFHLKAFYRDPTHTRDQAGYRFWKSLAETLDYPYCKINNSVYAQSTTRSDKAEFTFDAKYYPHGFPVEIYLNDTFHGLYTLRLKKTRENYTLNNADLNHIFLDNAEYRARLNTSFNYAQWEIKSPKMKGYSDQGPIPATFPTVQAAIDNLFNFTKGLSANYANHATVLNLPHWVLFYILAELTGHWDIDGNNYNIFTWDGVHWSILPYDMDLTLNWYRNSGATQTGFLINVDIWQTFRTVYSNEIKAMWTKFRNEKSLTTEKVVNTYRNVAKDIPREVYVADKAKWGLATDFTGNDYPNIEQIYRYITARIAYL,not soluble
13,TGVSSFQEILDKGMVFVNRNKGSGTRDLIEELIGNNESIRKNMKGYLWETNTEAGVARAVEQGRADAGITLEYYAIKLGLKYTHINKENYDILISKEFYDSEYGQAFIKNLKGLKDRIKNYPGYSVPDDI,not soluble
14,TIVKSEIIRKLMDAKKFLLDGYIDEGVKIVLEITKSSTKSEYNWFICNLLESIDCRYMFQVLDKIGSYFDLDKCQNLKSVVECGVINNTLNEHVNKALDILVIQGKRDKLEEIGREILKNNEVSASILVAIANALRRVGDERDATTLLIEACKKGEKEACNAVNTLTVRSVM,soluble
15,TLTKHEQDILLKELGPHVDTPAHIVETGLGAYHALFTAHPQYISHFSRLEGHTIENVMQSEGIKHYARTLTEAIVHMLKEISNDAEVKKIAAQYGKDHTSRKVTKDEFMSGEPIFTKYFQNLVKDAEGKAAVEKFLKHVFPMMAAEI,soluble
16,TLWPREVEGGQGKPSHGCRAASKARLEAKPANSPFPSHPSLAHITQFRMMVSLGHLAKGASLDDLIDSCIQSFDADGNLCRSNQLLQVMLTMHRIVISSAELLQKVITLYKDALAKNSPGLCLKICYFVRYWITEFWVMFKMDASLTDTMEEFQELVKAKGEELHCRLIDTTQINARDWSRKLTQRIKSNTSKKRKVSLLFDHLEPEELSEHLTYLEFKSFRRISFSDYQNYLVNSCVKENPTMERSIALCNGISQWVQLMVLSRPTPQLRAEVFIKFIQVAQKLHQLQNFNTLMAVIGGLCHSSISRLKETSSHVPHEINKVLGEMTELLSSSRNYDNYRRAYGECTDFKIPILGVHLKDLISLYEAMPDYLEDGKVNVHKLLALYNHISELVQLQEVAPPLEANKDLVHLLTLSLDLYYTEDEIYELSYAREPRNHRAPPLTPSKPPVVVDWASGVSPKPDPKTISKHVQRMVDSVFKNYDHDQDGYISQEEFEKIAASFPFSFCVMDKDREGLISRDEITAYFMRASSIYSKLGLGFPHNFQETTYLKPTFCDNCAGFLWGVIKQGYRCKDCGMNCHKQCKDLVVFECKKRAKNPVAPTENNTSVGPVSNLCSLGAKDLLHAPEEGPFTFPNGEAVEHGEESKDRTIMLMGVSSQKISLRLKRAVAHKATQTESQPWIGSEGPSGPFVLSSPRKTAQDTLYVLPSPTSPCPSPVLVRKRAFVKWENKDSLIKSKEELRHLRLPTYQELEQEINTLKADNDALKIQLKYAQKKIESLQLEKSNHVLAQMEQGDCS,soluble
17,TSKATIRDLNDPSQVKTLQEKASKGAGTVVAVIDAGFDKNHEAWRLTDKTKARYQSKEDLEKAKKEHGITYGEWVNDKVAYYHDYSKDGKTAVDQEHGTHVSGILSGNAPSETKEPYRLEGAMPEAQLLLMRVEIVNGLADYARNYAQAIRDAVNLGAKVINMSFGNAALAYANLPDETKKAFDYAKSKGVSIVTSAGNDSSFGGKTRLPLADHPDYGVVGTPAAADSTLTVASYSPDKQLTETATVKTDDHQAKEMPVLSTNRFEPNKAYDYAYANRGMKEDDFKDVKGKIALIERGDIDFKDKIANAKKAGAVGVLIYDNQDKGFPIELPNVDQMPAAFISRKDGLLLKDNSKKTITFNATPKVLPTASDTKLSRFSSWGLTADGNIKPDIAAPGQDILSSVANNKYAKLSGTSMSAPLVAGIMGLLQKQYETQYPDMTPSERLDLAKKVLMSSATALYDEDEKAYFSPRQQGAGAVDAKKASAATMYVTDKDNTSSKVHLNNVSDKFEVTVTVHNKSDKPQELYYQATVQTDKVDGKHFALAPKALYETSWQKITIPANSSKQVTVPIDASRFSKDLLAQMKNGYFLEGFVRFKQDPKKEELMSIPYIGFRGDFGNLSALEKPIYDSKDGSSYYHEANSDAKDQLDGDGLQFYALKNNFTALTTESNPWTIIKAVKEGVENIEDIESSEITETIFAGTFAKQDDDSHYYIHRHANGKPYAAISPNGDGNRDYVQFQGTFLRNAKNLVAEVLDKEGNVVWTSEVTEQVVKNYNNDLASTLGSTRFEKTRWDGKDKDGKVVVNGTYTYRVRYTPISSGAKEQHTDFDVIVDNTTPEVATSATFSTEDRRLTLASKPKTSQPIYRERIAYTYMDEDLPTTEYISPNEDGTFTLPEEAETMEGGTVPLKMSDFTYVVEDMAGNITYTPVTKLLEGHS,soluble
